Test results reported in US12258584B2, “Methods and systems for converting precursor cells into intestinal tissues through directed differentiation” (Children's Hospital Medical Center, priority 2010, dated 2025).

B1: ActivinA: nodal-related TGFβ molecule (R&D systems) used to differentiate PSCs into definitive endoderm (protein, UniProt P08476 311-426, looked up)
Inhibin beta A chain: GLECDGKVNICCKKQFFVSFKDIGWNDWIIAPSGYHANYCEGECPSHIAGTSGSSLSFHSTVINHYRMRGHSPFANLKSCCVPTKLRPMSMLYYDDGQNIIKKDIQNMIVEECGCS
B2: Noggin: the BMP antagonist Noggin (R&D Systems) (protein, UniProt Q13253 28-232, looked up)
Noggin: QHYLHIRPAPSDNLPLVDLIEHPDPIFDPKEKDLNETLLRSLLGGHYDPGFMATSPPEDRPGGGGGAAGGAEDLAELDQLLRQRPSGAMPSEIKGLEFSEGLAQGKKQRLSKKLRRKLQMWLWSQTFCPVLYAWNDLGSRFWPRYVKVGSCFSKRSCSVPEGMVCKPSKSVHLTVLRWRCQRRGGQRCGWIPIQYPIISECKCSC

Legend:
[1] = test system: hESCs and iPSCs; experiment: Definitive endoderm induction, SOX17/FOXA2 immunofluorescence; assay type: cell-based, human; conditions: ActivinA 100 ng/ml for 3 days
Experimental: Differentiation of PSCs into Definitive Endoderm (DE). Differentiation into Definitive Endoderm was carried out as previously described. Briefly, a 3 day ActivinA (R&D systems) differentiation protocol was used. Cells were treated with ActivinA (100 ng/ml) for three consecutive days in RPMI 1640 media (Invitrogen) with increasing concentrations of 0%, 0.2%, 2% HyClone defined FBS (dFBS) (Thermo Scientific).
Directing Hindgut Development of PSCs. As a first step to generating intestinal tissue, nodal-related TGFβ molecule activinA was used to promote differentiation of PSCs into DE as previously published. […]
FIGS. 6a and 6b illustrate exemplary embodiments in accordance with the present invention, depicting characterization of DE formation from hESC and iPSC lines by immuno-fluorescence (IF) and Microarray analysis. […] (b) Transcriptional profile of DE induction. hESC-H9 and iPSC lines 3.5, 3.6 and 3.12 were analyzed before and after DE formation (activin differentiation) by Affymetrix DNA microarray analysis.
Tissues were fixed for 1 hour to overnight in 4% paraformaldehyde or 3% glutaraldehyde for transmission electron microscopy (TEM). […] Slides were washed and mounted using Fluormount-G. Confocal images were captured on a Zeiss LSM510 and Z-stacks were analyzed and assembled using AxioVision software. […]

[2] = test system: H9-HES cells differentiated into definitive endoderm; experiment: Posteriorization of definitive endoderm: foregut (ALB, PDX1) and hindgut (CDX2) marker expression by RT-qPCR and immunofluorescence; assay type: cell-based, human
Experimental: Differentiation of DE in Permissive Media (Differentiation Protocol for FIG. 1). After differentiation into definitive endoderm, cells were incubated in DMEM/F12 plus 2% defined fetal bovine serum (dFBS) with either 0, 50, or 500 ng/ml of FGF4 and/or 0, 50, or 500 ng/ml of Wnt3a (R&D Systems) for 6, 48, or 96 hours. Cultures were then grown in permissive media consisting of DMEM plus 10% fetal bovine serum (FBS) for an additional 7 days.
FIGS. 1a through 1d illustrate exemplary embodiments of the present invention. FGF4 and Wnt3a act synergistically in a temporal and dose-dependent manner to specify stable posterior endoderm fate. ActivinA (100 ng/ml) was used to differentiate H9-HES cells into definitive endoderm (DE). DE was treated with the posteriorizing factors FGF4 (50, 500 ng), Wnt3a (50, 500 ng) or both for 6, 48 or 96 hours. Cells were then cultured in a permissive medium without growth factors for an additional seven days and analyzed for expression of foregut markers (ALB, PDX1) and the hindgut marker (CDX2) by RT-qPCR (a) and immunofluorescence (b-d). FGF4/Wnt-mediated changes in marker expression in (a) is relative to 3-day activin treated DE cultures that were grown for identical lengths of time in the absence of FGF4 or Wnt3a (control). […] Error bars denote standard deviation of triplicates. Significance is shown by; * (p<0.05), ^ (p<0.001), # (p<0.0001).
FIGS. 7a and 7b illustrate exemplary embodiments in accordance with the present invention, depicting time and concentration dependent induction of CDX2 by FGF4 and Wnt3a. (a) FGF4 and Wnt3a up-regulate CDX2 in a concentration dependant manner. 3-day ActivinA treated hESCs were treated for 48 hours with Wnt3a at 50 ng/ml or 500 ng/ml or FGF4 at 50 ng/ml or 500 ng/ml, or increasing concentrations of FGF4+Wnt3a. Cells were analyzed after 48 hours of treatment. […] CDX2 expression was normalized to the internal control beta-tubulin, and is shown relative to a 48 hour control cultured in the absence of growth factors. (b) FGF4 and Wnt3a up-regulate CDX2 in a time dependant manner. 48 hours of exposure to FGF4+Wnt3a was required for the most robust induction of CDX2. All time points shown are set relative to a 0 hour no growth factor control. 500 ng/ml of FGF4, Wnt3a or FGF4+Wnt3a was used for all time points. Note that 24 hour and 48 controls, in the absence of growth factors, show a significant and spontaneous up-regulation of CDX2. Error bars denote standard deviation of triplicates. Significance is shown by; * (p<0.05)
RNA was isolated using the Nucleospin II RNA isolation kit (Clonetech). […] Finally, qPCR was carried out using Quantitect SybrGreen MasterMix (Qiagen) on a Chromo4 Real-Time PCR (BioRad). […]

[3] = test system: definitive endoderm from human embryonic and induced pluripotent stem cells; experiment: Foregut/hindgut patterning of definitive endoderm by WNT, FGF, BMP and RA signaling (Cdx2, Sox2, HHex, Cerberus expression); assay type: cell-based
Experimental: Following definitive endoderm (DE) induction with activin (100 ng/ml) for 3 days, a 2-4 day treatment was performed with the indicated combination of factors: Wnt3a (500 ng/ml) and Fgf4 (500 ng/ml), Retinoic acid (RA) in a range of 0.2-20 μM the BMP antagonist Noggin (50 ng/ml), the WNT antagonist […] (1-500 ng/ml).
In particular, FIGS. 14B and 14D depict the activation of FGF/WNT/BMP signaling promotes posterior/hindgut fate as indicated by expression of Cdx2. […] Activation of FGF/WNT/BMP signaling represses foregut fate as indicated by expression of Sox2 (FIG. 14C).
The effects of Retinoic Acid in promoting hindgut differentiation in a BMP dependent manner (FIGS. 15A-15D). […] Similar comparison was also performed by immunostaining (FIGS. 15C and 15D). Activation of RA signaling promotes posterior/hindgut fate as indicated by expression of Cdx2 and represses foregut fate as indicated by expression of Sox2. Immunostaining in FIG. 15C is quantified in FIG. 15D using an automated cell counting program.

[4] = test system: intestinal organoids; experiment: Intestinal regionalization of hindgut spheroids in 3D matrigel culture with BMP or noggin; assay type: cell-based, human; conditions: added after the hindgut stage to EGF/Rspondid1 containing media; organoids analyzed after 28 days
Experimental: For investigating the impact of BMP signaling on intestinal regionalization after hindgut formation, hindgut spheroids were plated in matrigel and BMP or noggin were added to EGF/Rspondid1 containing media. Intestinal organoids were analyzed after 28 days.

| Molecule | cells co-expressing the DE markers SOX17 and FOXA2 [1] | cells co-expressing the DE markers SOX17 and FOXA2 ([1]; listed as Activin) | competence of DE cultures to form foregut and hindgut lineages ([2]; activinA for only 3-days, then seven days in permissive conditions) | competence of DE cultures to form foregut and hindgut lineages ([2]; prolonged activin treatment for 4-5 days) | Wnt/Fgf-induced Cdx2 expression ([3]; Noggin 50 ng/ml with Wnt3a 500 ng/ml and Fgf4 500 ng/ml, 2-4 day treatment after DE induction) | Retinoic acid (RA)-induced posteriorization, Cdx2 expression ([3]; addition of Noggin to Retinoic acid treatment) | hindgut and foregut fate (Cdx2, Sox2 expression) ([3]; repression of BMP signaling with noggin) | regional intestinal fate [4] |
| --- | --- | --- | --- | --- | --- | --- | --- | --- |
| B1 | 80-90% | up to 90% | competent to develop into both foregut (Albumin+ and Pdx1+) and hindgut (Cdx2) lineages | intrinsically anterior in character and not as competent to form posterior lineages | – | – | – | – |
| B2 | – | – | – | – | completely abolishes the Wnt/Fgf-induced Cdx2 expression | potently inhibits Cdx2 expression | suppresses hindgut fate and promotes foregut fate | promotes a proximal intestinal fate (duodenum/jejunum) |
